Consider 1 molecule from publication PMC6756063, “TRiC/CCT chaperonins are essential for organ growth by interacting with insulin/TOR signaling in Drosophila” (Oncogene, 2019).

The target of the assay is T1, GST-CCT4 (Drosophila, UniProt Q9VK69 1-533).
T1 construct: CCT4, Drosophila; source: E. coli BL21 (IPTG-inducible), purified using a standard method
T1 sequence (looked up): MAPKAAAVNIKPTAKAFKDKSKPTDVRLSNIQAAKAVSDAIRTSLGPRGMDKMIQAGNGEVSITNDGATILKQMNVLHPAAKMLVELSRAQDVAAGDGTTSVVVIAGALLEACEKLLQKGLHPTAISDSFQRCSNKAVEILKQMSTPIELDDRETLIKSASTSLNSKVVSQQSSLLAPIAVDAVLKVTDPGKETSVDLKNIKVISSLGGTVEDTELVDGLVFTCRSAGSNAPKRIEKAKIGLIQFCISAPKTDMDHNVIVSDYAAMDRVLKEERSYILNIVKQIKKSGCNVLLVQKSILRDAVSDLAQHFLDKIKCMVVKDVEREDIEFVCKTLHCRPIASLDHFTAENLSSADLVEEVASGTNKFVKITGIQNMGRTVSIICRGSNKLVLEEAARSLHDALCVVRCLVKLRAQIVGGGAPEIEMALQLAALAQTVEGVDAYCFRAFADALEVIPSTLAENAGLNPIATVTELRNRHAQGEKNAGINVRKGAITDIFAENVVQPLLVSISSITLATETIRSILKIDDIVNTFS
As to the kind of experiment: pull-down; MBP-pulldown of MBP-tagged bait with GST-CCT4; pulldown buffer 20 mM Tris pH 7.5, 150 mM NaCl, 0.5 mM EDTA, 10% glycerol, 0.1% Triton X-100, 1 mM DTT; blots with anti-MBP and anti-GST. Conditions: both partners purified.

B1: MBP-Rheb (natural protein, Drosophila, UniProt Q9VND8 1-182, looked up)
chain: MPTKERHIAMMGYRSVGKSSLCIQFVEGQFVDSYDPTIENTFTKIERVKSQDYIVKLIDTAGQDEYSIFPVQYSMDYHGYVLVYSITSQKSFEVVKIIYEKLLDVMGKKYVPVVLVGNKIDLHQERTVSTEEGKKLAESWRAAFLETSAKQNESVGDIFHQLLILIENENGNPQEKSGCLVS
notes: also called full-length Rheb; source: E. coli BL21 (IPTG-inducible), purified using a standard method
Consider B1, for which the binding result is given as “binds”.
